Target: DTL (UniProt Q9NZJ0)
Test: co-IP with His tag antibody
Conditions: reference: His-PDCD4 wild type; sites S67

binding against the reference: lost
Substance: PDCD4 (from UniProt Q53EL6) His-PDCD4(S67A)

From paper PMC6693180
